What was measured:
食蟹猴TSLP = 食蟹猴TSLP (食蟹猴 (cynomolgus monkey), UniProt A0A7N9CAT7 29-159); assay: cell-based or functional assay
[1] = target: T1, 人胸腺基质淋巴细胞生成素(Human Thymic Stromal Lymphopoietin, TSLP) (human, UniProt Q969D9 29-159); assay: SPR (Biacore T200), antibody captured on Protein A chip, human TSLP as analyte, 25℃, 1:1 model, mean of three runs
T1 construct: also called 人TSLP; hTSLP

[2] = target: T1, 人胸腺基质淋巴细胞生成素(Human Thymic Stromal …); assay: cell-based or functional assay
天然TSLP = assay: cell-based or functional assay

食蟹猴TSLP, sequence (A0A7N9CAT7 entry or part of it): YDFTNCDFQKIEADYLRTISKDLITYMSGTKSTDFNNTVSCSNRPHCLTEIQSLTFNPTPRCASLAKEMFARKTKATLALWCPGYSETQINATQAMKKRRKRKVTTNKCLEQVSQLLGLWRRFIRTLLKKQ

IC50 of inhibition of cynomolgus TSLP-induced STAT5 phosphorylation in SW756-STAT5-Luciferase reporter cells (食蟹猴TSLP) [ng/mL] | Kd [1] [nM] | koff [1] [s⁻¹] | kon [1] [M⁻¹ s⁻¹] | IC50 of inhibition of human TSLP-induced STAT5 phosphorylation in SW756-STAT5-Luciferase reporter cells [2] [ng/mL] | IC50 of inhibition of human TSLP-induced TARC (CCL17) release from human PBMC [2] [ng/mL] | IC50 of inhibition of human TSLP-induced TARC (CCL17) release from human whole blood [2] [ng/mL] | IC50 of inhibition of natural TSLP-induced STAT5 phosphorylation in SW756-STAT5-Luciferase reporter cells (天然TSLP) [ng/mL] | Binder
1.88 | – | – | – | – | – | – | – | Tezepelumab (antibody, V domains shown) VH: QMQLVESGGGVVQPGRSLRLSCAASGFTFRTYGMHWVRQAPGKGLEWVAVIWYDGSNKHYADSVKGRFTITRDNSKNTLNLQMNSLRAEDTAVYYCARAPQWELVHEAFDIWGQGTMVTVSS VL: SYVLTQPPSVSVAPGQTARITCGGNNLGSKSVHWYQQKPGQAPVLVVYDDSDRPSWIPERFSGSNSGNTATLTISRGEAGDEADYYCQVWDSSSDHVVFGGGTKLTVLG
0.889 | 0.0175 | 2.99e-05 | 1.74e+06 | 0.837 | 77.1 | 0.839 | 0.462 | QX008N(HZD8G2-57) (antibody, human IgG1, kappa, V domains shown, also called 抗人TSLP单克隆抗体) VH: EVQLVESGGGLVQPGGSLRLSCAASGFSLSSYYMSWVRQAPGKGLEWVGFISYGGSAYHATWAQGRFTISKDNSKNTLYLQMNSLRAEDTAVYYCAREFRSMTYGAEWGIWGQGTLVTVSS VL: AYQMTQSPSSVSASVGDRVTITCQASESIYDTLAWYQQKPGKAPKLLIYSASSLASGVPSRFSGSGSGTDFTLTISSLQPEDFATYYCQQGYTMPDVDKNPFGGGTKVEIKR
